Measurements from article PMC3408606 (Thrombosis and haemostasis, 2011).

System: platelets
Assay: Platelet aggregation
Assay type: cell-based, human

B1: ApoD: plasma lipocalin constituent of HDL, recombinant 6xHis, expressed in HEK293 cells (protein, UniProt P05090 21-189, looked up)
Apolipoprotein D: QAFHLGKCPNPPVQENFDVNKYLGRWYEIEKIPTTFENGRCIQANYSLMENGKIKVLNQELRADGTVNQIEGEATPVNLTEPAKLEVKFSWFMPSAPYWILATDYENYALVYSCTCIIQLFHVDFAWILARNPNLPPETVDSLKNILTSNNIDVKKMTVTDQVNCPKLS
modifications: 6xHis tag
did not inhibit: Inhibition of AA-induced platelet aggregation (low doses of AA, ApoD expressed in HEK293 cells) | Inhibition of U46619-induced platelet aggregation (low doses of U46619, ApoD expressed in HEK293 cells) | Inhibition of collagen-induced platelet aggregation (low doses of collagen, ApoD expressed in HEK293 cells)
